Source: patent publication US20130136721A1, “Compositions and Methods of Generating a Differentiated Mesodermal Cell” (THE JOHNS HOPKINS UNIVERSITY, priority 2010, published 2013)
Entries after “also recorded” stand apart in the source; their conditions may differ.

What was measured:
H9 hESC = experiment: Beating hEB assay (contracting hEB after forced aggregation cardiac differentiation); assay type: cell-based, human; conditions: for effect on cardiac differentiation, phase 2 medium: supplement in d0-d2 medium; for effect on cardiac differentiation, phase 2 medium / effect on cardiac differentiation, phase 3 medium: contracting hEB d9; for effect on cardiac differentiation, phase 3 medium: supplement in d2-d4 medium
Source text: The cardiac differentiation protocol was divided into four distinct phases for optimization (FIG. 3A): phase 1: uniform undifferentiated growth; phase 2: hEB formation/mesoderm induction; phase 3: hEB cardiac specification; phase 4: contracting cardiomyocyte development. […] After an initial round of optimizations had been completed, optimizations was repeated a second time to account for the new media formulations and then a third time to optimize the final media formulation. In some cases fourth and fifth repeats were performed to improve the statistical power of the results. For each variable tested, the bell-curve distribution of dose-response was determined. Results shown are averages of the 2nd-5th replicates (FIG. 2B).
For forced aggregation hEB differentiations, confluent hESC or hiPSC which had been grown on a commercially available extracellular matrix, Geltrex (Invitrogen) as monolayers for 3 to 13 passages were passaged with TrypLE Select and seeded at 2.5×10^6 per T25 flask. After 24 hours growth, cells were washed with PBS and treated with room temperature TrypLE Select for 1 minute at 37° C. Cells were seeded at 5000 cells per well in 96-well V-bottom uncoated plates (249952, NUNC) in 100 μL per well RPMI+PVA medium consisting of RPMI Media 1640 (with L-Glutamine), 4 mg mL-1 polyvinyl alcohol (P8136, Sigma, dissolved in RPMI at 4° C. for at least 72 hours, mixing by inversion every day), 1% chemically defined lipid concentrate, 10 μg mL-1 recombinant human insulin (Sigma), 400 μM 1-thioglycerol (Sigma), 25 ng mL-1 BMP4 and 5 ng mL-1 FGF2 (both from R&D systems), 1 μM Y-27632 (Calbiochem). This medium is not stable and was made fresh for each experiment. After 48 hours (on day 2) medium was aspirated with a Costar 8-channel aspirator (Corning) and replaced with RPMI+FBS medium consisting RPMI Media 1640, 20% characterized FBS (Hyclone), 400 μM 1-thioglycerol. On day 4 media was changed to RPMI+PVA without growth factors and hEB were transferred to 96-well U-bottom tissue culture treated plates (650180, Greiner Bio-One). Media was changed on d7 and every 3 days afterwards. hEB were visually assessed for contraction on d9 using a Nikon Eclipse Ti inverted tissue culture microscope with a TOKAI-HIT heated stage (Nikon). Images were captured using NIS-Elements (Nikon). […] For traditional cardiac differentiations using FBS, undirected differentiation was performed as previously described (Kehat et al. J Clin Invest 108, 407-414 (2001)): briefly, confluent H9 hESC grown as colonies on MEF were treated with collagenase IV for 5 minutes at 37° C. then washed from the plate using a 5 mL pipette. Cell clusters were then transferred to Petri dishes in 20% FBS medium for 7 days. hEB were then transferred to gelatin coated tissue culture plates. Media was changed every 3 days.
One single replicate consists of one 96-well plate. Repeat replicates were performed 1-4 months apart using a different vial of cells. Each experiment was repeated at least 3 times representing at least 288 hEB. Total number of hEB assessed in this work exceeds 80,000. Wells in which no hEB was detected due to pipeting error were excluded and accounted for approximately 1-5% of wells. P-values were established using unpaired two-tailed Student's t-test.

iPS(IMR90)-1 hiPSC = experiment: as above; assay type: cell-based, human; conditions: d0-d2
Source text: The cardiac differentiation protocol was divided into four distinct phases for optimization (FIG. 3A): phase 1: uniform undifferentiated growth; phase 2: hEB formation/mesoderm induction; phase 3: hEB cardiac specification; phase 4: contracting cardiomyocyte development. A simple beating hEB assay was used to sequentially assess improvements in cardiac differentiation in each of these four phases by counting the number of hEB contracting after nine days of differentiation, a time point that was identified as the day of maximum percentage contraction in the enhanced ‘prototype’ version of the protocol (FIG. 1B). After an initial round of optimizations had been completed, optimizations was repeated a second time to account for the new media formulations and then a third time to optimize the final media formulation. […] For each variable tested, the bell-curve distribution of dose-response was determined. […]
For forced aggregation hEB differentiations, confluent hESC or hiPSC which had been grown on a commercially available extracellular matrix, Geltrex (Invitrogen) as monolayers for 3 to 13 passages were passaged with TrypLE Select and seeded at 2.5×10^6 per T25 flask. […] Media was changed on d7 and every 3 days afterwards. hEB were visually assessed for contraction on d9 using a Nikon Eclipse Ti inverted tissue culture microscope with a TOKAI-HIT heated stage (Nikon). […]

B1: NODAL: growth factor titrated between 1-100 ng mL-1 (protein, UniProt Q96S42 238-347, looked up)
Nodal homolog: HHLPDRSQLCRKVKFQVDFNLIGWGSWIIYPKQYNAYRCEGECPNPVGEEFHPTNHAYIQSLLKRYQPHRVPSTCCAPVKTKPLSMLYVDNGRVLLDHHKDMIVEECGCL
- effect on cardiac differentiation, phase 2 medium (H9 hESC): none were found to have the same potency as BMP4

B2: activin A: growth factor titrated between 1-100 ng mL-1 (protein, UniProt P08476 311-426, looked up)
Inhibin beta A chain: GLECDGKVNICCKKQFFVSFKDIGWNDWIIAPSGYHANYCEGECPSHIAGTSGSSLSFHSTVINHYRMRGHSPFANLKSCCVPTKLRPMSMLYYDDGQNIIKKDIQNMIVEECGCS
- effect on cardiac differentiation, phase 2 medium (H9 hESC): none were found to have the same potency as BMP4

B3: TDGF1: growth factor titrated between 1-100 ng mL-1 (protein, UniProt P13385 31-150, looked up)
Protein Cripto: LGHQEFARPSRGYLAFRDDSIWPQEEPAIRPRSSQRVPPMGIQHSKELNRTCCLNGGTCMLGSFCACPPSFYGRNCEHDVRKENCGSVPHDTWLPKKCSLCKCWHGQLRCFPQAFLPGCD
- effect on cardiac differentiation, phase 2 medium (H9 hESC): none were found to have the same potency as BMP4

B4: BMP6: growth factor titrated between 1-100 ng mL-1 (protein, UniProt P22004 375-513, looked up)
Bone morphogenetic protein 6: SASSRRRQQSRNRSTQSQDVARVSSASDYNSSELKTACRKHELYVSFQDLGWQDWIIAPKGYAANYCDGECSFPLNAHMNATNHAIVQTLVHLMNPEYVPKPCCAPTKLNAISVLYFDDNSNVILKKYRNMVVRACGCH
- effect on cardiac differentiation, phase 2 medium (H9 hESC): none were found to have the same potency as BMP4

B5: BMP4: bone morphogenic protein 4, mesodermal morphogen growth factor (protein, UniProt P12644 293-408, looked up)
Bone morphogenetic protein 4: SPKHHSQRARKKNKNCRRHSLYVDFSDVGWNDWIVAPPGYQAFYCHGDCPFPLADHLNSTNHAIVQTLVNSVNSSIPKACCVPTELSAISMLYLDEYDKVVLKNYQEMVVEGCGCR
- most effective BMP4 concentration (H9 hESC; d0-d2): 25 ng/mL
- effect on cardiac differentiation, phase 3 medium (H9 hESC): did not further enhance this phase; also recorded: did not enhance cardiac differentiation
- most effective BMP4 concentration (iPS(IMR90)-1 hiPSC): 5 ng/mL

B6: DKK1: additional supplement to serum-free d2-d4 medium (protein, UniProt O94907 32-266, looked up)
Dickkopf-related protein 1: TLNSVLNSNAIKNLPPPLGGAAGHPGSAVSAAPGILYPGGNKYQTIDNYQPYPCAEDEECGTDEYCASPTRGGDAGVQICLACRKRRKRCMRHAMCCPGNYCKNGICVSSDQNHFRGEIEETITESFGNDHSTLDGYSRRTTLSSKMYHTKGQEGSVCLRSSDCASGLCCARHFWSKICKPVLKEGQVCTKHRRKGSHGLEIFQRCYCGEGLSCRIQKDHHQASNSSRLHTCQRH
- effect on cardiac differentiation, xeno- and serum-free d2-d4 medium (H9 hESC; supplement in serum-free d2-d4 medium): did not further enhance differentiation

B7: transferrin: bovine transferrin media supplement (protein, UniProt Q29443 20-704, looked up)
Serotransferrin: DPERTVRWCTISTHEANKCASFRENVLRILESGPFVSCVKKTSHMDCIKAISNNEADAVTLDGGLVYEAGLKPNNLKPVVAEFHGTKDNPQTHYYAVAVVKKDTDFKLNELRGKKSCHTGLGRSAGWNIPMAKLYKELPDPQESIQRAAANFFSASCVPCADQSSFPKLCQLCAGKGTDKCACSNHEPYFGYSGAFKCLMEGAGDVAFVKHSTVFDNLPNPEDRKNYELLCGDNTRKSVDDYQECYLAMVPSHAVVARTVGGKEDVIWELLNHAQEHFGKDKPDNFQLFQSPHGKDLLFKDSADGFLKIPSKMDFELYLGYEYVTALQNLRESKPPDSSKDECMVKWCAIGHQERTKCDRWSGFSGGAIECETAENTEECIAKIMKGEADAMSLDGGYLYIAGKCGLVPVLAENYKTEGESCKNTPEKGYLAVAVVKTSDANINWNNLKDKKSCHTAVDRTAGWNIPMGLLYSKINNCKFDEFFSAGCAPGSPRNSSLCALCIGSEKGTGKECVPNSNERYYGYTGAFRCLVEKGDVAFVKDQTVIQNTDGNNNEAWAKNLKKENFEVLCKDGTRKPVTDAENCHLARGPNHAVVSRKDKATCVEKILNKQQDDFGKSVTDCTSNFCLFQSNSKDLLFRDDTKCLASIAKKTYDSYLGDDYVRAMTNLRQCSTSKLLEACTFHKP
- effect on cardiac differentiation, phase 2 medium (H9 hESC): either did not further enhance differentiation or had negative effects on differentiation
- effect on cardiac differentiation, phase 3 medium (H9 hESC): Neither transferrin, L-ascorbic acid, lipids or NEAA enhanced this phase of differentiation
- effect on cardiac differentiation, phase 4 medium (H9 hESC; supplement in d4 onwards medium): not required
